{
  "source": "patent US8492329B2",
  "about": "“Bioactive peptides and methods of using same” (Compugen Ltd., priority 2007, dated 2013)",
  "assay_type_in_all_cases": "cell-based",
  "key": {"LGR5": {"target": "T1, LGR5 (Homo sapiens, UniProt O75473)", "T1 construct": "expressed in transfected cells; host or cells: CHO-K1 (transient)", "T1 sequence (O75473 22-907)": "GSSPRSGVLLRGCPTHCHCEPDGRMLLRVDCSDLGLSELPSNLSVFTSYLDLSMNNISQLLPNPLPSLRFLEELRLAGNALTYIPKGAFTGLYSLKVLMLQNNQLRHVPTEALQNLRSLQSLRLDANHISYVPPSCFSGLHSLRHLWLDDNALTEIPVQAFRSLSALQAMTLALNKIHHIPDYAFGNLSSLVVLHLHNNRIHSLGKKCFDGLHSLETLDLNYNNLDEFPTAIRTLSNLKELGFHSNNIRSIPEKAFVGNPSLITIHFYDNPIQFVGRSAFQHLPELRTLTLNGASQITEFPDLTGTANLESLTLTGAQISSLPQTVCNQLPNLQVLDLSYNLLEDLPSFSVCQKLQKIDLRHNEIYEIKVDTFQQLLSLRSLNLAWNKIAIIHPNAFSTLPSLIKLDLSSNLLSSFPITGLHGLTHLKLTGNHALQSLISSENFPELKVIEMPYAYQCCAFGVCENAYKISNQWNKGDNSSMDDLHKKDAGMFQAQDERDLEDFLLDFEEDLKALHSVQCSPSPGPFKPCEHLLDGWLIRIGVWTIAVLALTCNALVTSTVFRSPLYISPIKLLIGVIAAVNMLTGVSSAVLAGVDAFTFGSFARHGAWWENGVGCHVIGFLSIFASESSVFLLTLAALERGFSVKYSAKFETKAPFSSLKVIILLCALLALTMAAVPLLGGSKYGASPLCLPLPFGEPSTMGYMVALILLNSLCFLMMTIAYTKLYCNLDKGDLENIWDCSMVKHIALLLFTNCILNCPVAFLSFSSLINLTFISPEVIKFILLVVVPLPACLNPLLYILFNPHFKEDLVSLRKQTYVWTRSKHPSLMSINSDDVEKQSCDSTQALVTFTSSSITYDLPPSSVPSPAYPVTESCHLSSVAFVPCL", "assay": "cAMP accumulation in CHO-K1 cells transiently transfected with LGR5", "conditions": "1 uM, pre-treatment with Forskolin, FIG. 3B", "protocol": "[The procedure below names another target; the source says it served here with some conditions changed.] (§1) LGR7 (RXFP1) or LGR8 (RXFP2) were transiently transfected into CHO-K1 cells as follows: Cells (12 million) were plated into T75 flasks on the day preceding transfection. Cells were transfected with a GPCR DNA and Gα16 using a lipid technique according to the manufacturer's recommendation. Cells were transfected for 5 hours, then re-plated into 96-well dishes (60,000 cells per well) and grown overnight. Transfected cells were plated into 24 wells of a 96-well plate. Cells were pre-treated with 0.5 mM IBMX (stimulation buffer) for 10 min at 37° C., then stimulated with either a positive control (Relaxin 2) or a candidate peptide (for Gs functional examination), followed by stimulation or a preincubation with 10 μM forskolin (for Gi functional examination). Following a 20 minutes stimulation by incubation with 1 μM of either positive control or the tested peptides, either with or without forskolin, intracellular cAMP was assayed using the Hit Hunter cAMP kit (DiscoveRx Corporation) according to the manufacturer's recommended protocol. Data was converted to nmol of cAMP by running a standard cAMP curve."}, "LGR4 [1]": {"target": "T2, LGR4 (Homo sapiens, UniProt Q9BXB1)", "T2 construct": "expressed in transfected cells; host or cells: CHO-K1 (transient)", "assay": "cAMP accumulation in CHO-K1 cells transiently transfected with LGR4", "conditions": "1 uM, pre-treatment with Forskolin, FIG. 3C", "protocol": "[The procedure below names another target; the source says it served here with some conditions changed.] as §1"}, "LGR4 [2]": {"target": "T2, LGR4", "assay": "ACEA RT-CES cell impedance, LGR4 transfected CHO-K1 cells", "conditions": "P74C13V 10 uM, H2 Relaxin 1 uM, FIG. 15", "source_text": "ACEA RT-CES screen is a noninvasive and label-free assay for GPCRs that can be used with both engineered and nonengineered cell lines. The assay is based on using cell-electrode impedance to measure minute changes in cellular morphology as a result of ligand-dependent GPCR activation and is described in Naichen Yu, et al., Anal. Chem., 78 (1), 35-43, 2006. 10.1021/ac051695v S0003-2700(05)01695-1. The Rho family of small GTPases, which include Rho, Rac, and CDC42, are well-characterized effectors of oncogenes, growth factor and adhesion-mediated signaling pathways and are not classically thought of as being key effectors for GPCRs. […] Since GPCRs couple to the actin cytoskeletal network and induce very defined morphological changes, it is possible to harness this information as a functional and biologically relevant readout for GPCRs.\nACEA biosciences; has designed electronic cell sensor arrays embedded in the bottom of the well of microtiter plates that are capable of measuring minute changes in cell morphology. […] The main advantages offered by using cell-substrate impedance and cell morphology as a readout are that both exogenously expressed and endogenous receptors can be assayed without the need for engineering the cell with promiscuous G proteins and reporters or labeling the cells with dyes. […]"}},
  "note": "Entries after “also recorded” stand apart in the source; their conditions may differ. No end group written: not given here.",
  "data": [
    {"substance": "GQKGQVGPPGAAVRRAYAAFSV [Peptide P59C13V]", "values": [
      {"measurement": "Gi effect (decrease in cAMP accumulation)", "setting": "LGR5", "result": "significant Gi effect; also recorded: slight Gi activation"},
      {"measurement": "Gi effect (decrease in cAMP accumulation)", "setting": "LGR4 [1]", "result": "slight yet statistically significant Gi effect; also recorded: slight Gi activation"}
    ]},
    {"substance": "GQKGQVGPPGAAVRRAYAAFSVGRRAYAAFSV-OH [Peptide P74C13V]", "values": [
      {"measurement": "effect on cell impedance (normalized cell index)", "setting": "LGR4 [2]", "result": "moderate effect"},
      {"measurement": "Gi effect (decrease in cAMP accumulation)", "setting": "LGR5", "result": "significant Gi effect; also recorded: slight Gi activation"},
      {"measurement": "Gi effect (decrease in cAMP accumulation)", "setting": "LGR4 [1]", "result": "slight yet statistically significant Gi effect; also recorded: slight Gi activation"}
    ]},
    {"substance": "H2 Relaxin: H2 Relaxin (ACS), positive control, known ligand of LGR7 (RXFP1) [reference compound]", "values": [
      {"measurement": "effect on cell impedance (normalized cell index)", "setting": "LGR4 [2]", "result": "much stronger effect"}
    ]}
  ]
}
